Changes are numbered by the printed parent chain.
B1: 纳米抗体N3 (VHH)
VHH: QVQLVESGGGLVQAGGSLRLSCRASGSVFTMGWHRQAPGNGREFVASITRDGNANYKGSVKDRFTISRDNGKNTLYLQMNSLKPEDTAVYYCIDYNTSTWGQGTQVTVSS
notes: also called R3
B2: 纳米抗体N22 (VHH)
VHH: QVQLVESGGGLVQAGGSLRLSCRASGTVFNMGWHRQAPGQQREFVASISHDGRTNYAGSVKGRFTISRDNTKNTLYLQMNSLKPEDTAVYYCIDYHTSLWGQGTQVTVSS
notes: also called R22
B3: 纳米抗体N5 (VHH)
VHH: QVQLVESGGGPVQAGGSLRLSCAAAGSALSIYRMGWYRQAPGKQRELVAFITTGGSTDHIDSVKGRFTISRDNAKNTVYLQMNSLKPEDTAVYYCNSDPPWVLGADWGQGTQVTVSS
notes: also called R5
B4: 纳米抗体N1 (VHH)
VHH: QVQLVESGGGLVQPGGSLRLSCTASGSGFSNNNMAWYRQAPGKAREWVAAVSSSGNTNYAASAKGRFTISRDNAKNTVYLQMSSLKPEDTAVYYCYAVAPEGGDSWGQGTQVTVSS
notes: also called R1
B5: 纳米抗体N10 (VHH)
VHH: B4 VHH with Q13E, P14A, T23A, S27I, G28I, N31I, A44P, A63V, V78L
notes: also called R10

molecular target: T1, SARS-CoV2病毒表面SPIKE蛋白的RBD结构域 (SARS-CoV-2, UniProt P0DTC2 319-541); test: SPR (Biacore)
T1 construct: domain: RBD结构域

Binder | Kd
B1 | 1.4 nM
B2 | 0.19 nM
B3 | 5.3 nM
B4 | 0.56 nM
B5 | 0.59 nM

molecular target: 新冠病毒刺突蛋白(S蛋白) (SARS-CoV-2, UniProt P0DTC2 14-1213); test: cell-based or functional assay

Binder | 假病毒中和 IC50
B3 | 0.023 µg/mL

Source: patent publication CN115124615A (SICHUAN YIAI TECH CO LTD, dated 2022)
